Laboratory results from article PMC5253658.

Tests used:
TLR4 = TLR4 (UniProt Q9QUK6); test: co-immunoprecipitation of SCIMP, TLR4 blot; conditions: reference: wild type SCIMP; sites Y96
TLR4 TIR domain, 670-835 = TLR4 TIR domain, 670-835 (UniProt Q9QUK6); test: fluorescence titration of FAM-labelled peptide; conditions: reference: unphosphorylated Y96 peptide; sites Y96
[1] = biological target: FAM-labelled phosphorylated SCIMP Y96 peptide (amino acids 90-107) (mouse); test: other fluorescence titration; FAM-labelled SCIMP Y96 peptides (aa 90-107) titrated with unlabelled TLR4-TIR; 25 °C, 30 mM Tris pH 7.4, 150 mM NaCl, 1 mM dithiothreitol; curve fit (Grafit)
[2] = biological target: FAM-labelled unphosphorylated SCIMP Y96 peptide (amino acids 90-107) (mouse); test: as above

Substance: SCIMP (from UniProt Q3UU41) Y96F
- binding against the reference (TLR4): lost

Substance: SCIMP 90-107 (from UniProt Q3UU41) pY96 peptide
- KD (TLR4 TIR domain, 670-835): stronger; reference >2.5 μM

Substance: His-TLR4-TIR (cytoplasmic TIR domain of mouse TLR4, amino acids 670-835) (from UniProt Q9QUK6 670-835) (domain or fragment)
- Kd [1]: 159 nM
- Kd [2]: > 2500 nM
